B1: THAP1; numbered along this chain (parent)
chain: MVQSCSAYGCKNRYDKDKPVSFHKFPLTRPSLCKEWEAAVRRKNFKPTKYSSICSEHFTPDCFKRECNNKLLKENAVPTIFLCTEPHDKKEDLLEPQEQLPPPPLPPPVSQVDAAIGLLMPPLQTPVNLSVFCDHNYTVEDTMHQRKRIHQLEQQVEKLRKKLKTAQQRCRRQERQLEKLKEVVHFQKEKDDVSERGYVILPNDYFEIVEVPA

Variants of: B1
Test: THAP1 transcriptional activity (GFP+/GFP- enrichment relative to wild-type constructs) (ratio to WT); higher = more THAP1 activity (PSMB5 reporter activation)
Conditions: with PSMB5 promoter-GFP reporter
Protocol: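 Deep mutational scan of human THAP1. Site-saturation single amino acid variant library (residues 2-213) was expressed by lentivirus at MOI ~0.3 in THAP1-knockout HEK-293T cells carrying an endogenous PSMB5 promoter-GFP knock-in reporter. Five days post-transduction, BFP+ cells were FACS-sorted into GFP dim and GFP bright populations and variants were counted by Illumina sequencing. Activity is the GFP-bright/GFP-dim read fold change, mean of 2 replicates, divided by the mean fold change of wild-type (synonymous) constructs in the same screen pool; WT = 1.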

THAP1 transcriptional activity, by site and new letter:
E56: C 0.263, F 0.363, Y 0.194, M 0.509, K 0.472, S 0.473, P 0.0876, H 0.253, W 0.249, R 0.389, I 0.6, V 0.83, A 0.98, G 0.114, T 0.336, L 0.526, D 1.26, Q 0.873, N 0.344
S51: R 0.0935, H 0.145, K 0.121, N 0.16, C 0.128, Y 0.0754, L 0.111, D 0.0561, V 0.102, E 0.185, M 0.26, I 0.124, F 0.102, A 0.32, P 0.118, T 0.421, W 0.122, Q 0.0846, G 0.0575
K49: L 0.234, R 0.427, P 0.264, Q 0.317, F 0.122, V 0.257, N 0.177, C 0.185, I 0.398, E 0.105, W 0.1, D 0.12, Y 0.0951, M 0.232, S 0.261, T 0.138, G 0.123, A 0.22, H 0.0815
S52: A 1.55, H 0.251, C 1.57, P 0.096, Y 0.46, K 0.641, E 0.0459, I 0.379, L 0.606, N 0.469, D 0.109, F 0.325, Q 0.261, G 0.141, V 1.14, T 1.41, M 0.633, W 0.089
T48: M 0.138, E 0.0991, I 0.123, F 0.109, C 0.128, R 0.132, W 0.0814, D 0.113, P 0.174, H 0.102, Y 0.0779, N 0.545, V 0.12, A 0.107, S 0.729, L 0.115, Q 0.0994, K 0.158, G 0.419
H57: D 0.0578, E 0.0678, A 0.116, C 0.196
N44: C 0.476, G 1.06, T 0.439, Y 0.297, F 0.301, M 0.177, P 0.0859, I 0.118, H 0.574, D 1.16, V 0.111, W 0.123, L 0.205, R 0.178, S 0.494, K 0.462, E 0.348, A 0.194
K43: S 0.623, R 0.716, L 0.454, Q 1.02, P 0.957, H 0.626, W 0.278, E 0.598, T 0.689, Y 0.365, F 0.153, C 0.621, D 0.503, V 0.726, G 0.329, M 0.434, I 0.615, A 0.587
R42: C 0.114, T 0.103, S 0.158, L 0.104, H 0.105, E 0.118, P 0.0977, G 0.0813, Q 0.202, M 0.0797, V 0.136, K 0.189, D 0.0738, A 0.127, W 0.128, F 0.116, Y 0.103, I 0.181
I53: R 0.0647, Y 0.141, P 0.0932, V 0.447, G 0.0813, T 0.111, W 0.052, M 0.194, F 0.0519, A 0.136, S 0.112, N 0.0864, E 0.101, Q 0.0507, C 0.164, K 0.0685, H 0.1, D 0.133
V40: E 0.113, L 0.867, T 0.238, Q 0.142, R 0.1, C 0.665, D 0.0854, A 0.221, K 0.127, S 0.14, H 0.17, W 0.169, M 0.853, F 0.119, Y 0.101, N 0.136, G 0.0879, P 0.128, I 1.6
K46: A 0.436, N 0.295, I 0.465, L 0.23, R 0.568, T 0.869, E 0.212, G 0.0852, Y 0.335, W 0.148, S 0.379, F 0.339, M 0.442, C 0.377, Q 0.581, H 0.654, V 0.455, P 0.126, D 0.0595
R41: N 0.809, V 0.131, Q 0.878, P 0.0904, I 0.146, T 0.171, E 0.197, M 0.475, K 1.05, W 0.182, L 0.233, H 0.827, C 0.763, A 1.37, Y 0.274, G 1.52, S 0.809, F 0.233
C54: V 0.0511, I 0.0624, M 0.0985, K 0.097, N 0.106, E 0.0874, A 0.0793, W 0.107, P 0.234, T 0.0761, L 0.0556, Q 0.0652, Y 0.124, F 0.105, G 0.0692, S 0.154, R 0.0929, H 0.0812, D 0.178
A39: N 0.865, I 0.271, H 0.601, K 0.9, S 0.512, Y 0.413, R 0.673, M 0.752, P 0.143, F 0.283, G 0.131, Q 0.502, W 0.289, T 0.26, L 0.253, V 0.252
F45: V 0.0786, I 0.0544, N 0.108, M 0.12, E 0.0902, G 0.0858, A 0.0632, L 0.142, T 0.0941, H 0.161, S 0.0855, Y 0.154, K 0.0558, Q 0.128, R 0.146, C 0.027, P 0.114, D 0.0693
Y50: N 0.389, S 0.268, V 0.12, I 0.112, L 0.135, Q 0.0845, P 0.103, C 0.275, D 0.129, E 0.108, H 0.759, G 0.1, A 0.294, R 0.09, T 0.13, F 0.616, M 0.091, K 0.0751
P47: K 0.111, V 0.712, N 0.138, A 0.896, C 0.229, W 0.0629, Y 0.114, Q 0.104, F 0.0757, I 0.36, H 0.106, D 0.108, S 0.14, G 0.111, L 0.242, E 0.173, R 0.0941, T 0.151
S55: F 0.084, R 0.113, Y 0.109, V 0.101, N 0.147, Q 0.168, P 0.0679, A 0.112, K 0.0934, E 0.127, D 0.077, W 0.0398, L 0.106, T 0.128, I 0.114, M 0.0662, C 0.0655, G 0.185, H 0.0394

Source: the supplement of paper PMC11811203
